From PMC4104448 come the findings set out here.

The target of this experiment is T1, Biotinylated human β-glucocerebrosidase (residues 40A-536R) (human).
T1 sequence (P04062 whole entry, looked up): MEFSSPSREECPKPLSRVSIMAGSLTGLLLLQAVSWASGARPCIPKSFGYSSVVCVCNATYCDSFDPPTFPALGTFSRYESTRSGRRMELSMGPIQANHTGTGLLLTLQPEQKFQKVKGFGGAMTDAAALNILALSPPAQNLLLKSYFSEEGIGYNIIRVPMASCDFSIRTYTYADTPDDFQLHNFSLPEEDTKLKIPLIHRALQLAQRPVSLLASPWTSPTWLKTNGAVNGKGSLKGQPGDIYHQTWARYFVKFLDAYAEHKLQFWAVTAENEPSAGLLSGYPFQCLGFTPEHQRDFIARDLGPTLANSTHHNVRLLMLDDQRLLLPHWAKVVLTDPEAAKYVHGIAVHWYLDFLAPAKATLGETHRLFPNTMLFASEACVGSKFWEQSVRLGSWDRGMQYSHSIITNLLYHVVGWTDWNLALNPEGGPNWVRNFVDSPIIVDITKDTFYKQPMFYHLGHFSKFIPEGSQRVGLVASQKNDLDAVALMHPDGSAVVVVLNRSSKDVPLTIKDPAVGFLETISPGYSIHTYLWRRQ
Kind of experiment: SPR; equilibrium binding; about 1,000 RU of biotinylated ligand on a streptavidin-coupled CM5 chip, LIMP-2 as analyte; Biacore T100, 25 °C, 10 mM HEPES pH 7.5, 150 mM NaCl, 0.005% Tween 20; one-site saturation binding model.

B1: Human LIMP-2 luminal domain (residues 28-431) produced from HEK293S (GnTI-) cells, with limited glycosylation (domain or fragment)
chain: VFQKAVDQSIEKKIVLRNGTEAFDSWEKPPLPVYTQFYFFNVTNPEEILRGETPRVEEVGPYTYRELRNKANIQFGDNGTTISAVSNKAYVFERDQSVGDPKIDLIRTLNIPVLTVIEWSQVHFLREIIEAMLKAYQQKLFVTHTVDELLWGYKDEILSLIHVFRPDISPYFGLFYEKNGTNDGDYVFLTGEDSYLNFTKIVEWNGKTSLDWWITDKCNMINGTDGDSFHPLITKDEVLYVFPSDFCRSVYITFSDYESVQGLPAFRYKVPAEILANTSDNAGFCIPEGNCLGSGVLNVSICKNGAPIIMSFPHFYQADERFVSAIEGMHPNQEDHETFVDINPLTGIILKAAKRFQINIYVKKLDDFVETGDIRTMVFPVMYLNESVHIDKETASRLKSMINT
modifications: N-linked P-Man9GlcNAc2 (with terminal mannose 6-phosphate) at N325; sugars on all nine N-linked glycosylation sites, limited processing
In turn, B1 came in with a Kd of 1.4 µM.
